biological target: T1, anti-CD28 Fab (SEQ ID NOs: 202, 203); test: phage binding ELISA; Fab wells pre-incubated with CD28 antigen (competitor);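 further: clonal phage supernatants added to wells preincubated with CD28 antigen in blocking buffer versus blocking buffer alone, washed, bound phage read by HRP-conjugated anti-M13 antibody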
T1 construct: biotinylated and captured on neutravidin coated plates in the phage ELISA
T1 sequence (VH, as listed by the source, chain 1 of 2): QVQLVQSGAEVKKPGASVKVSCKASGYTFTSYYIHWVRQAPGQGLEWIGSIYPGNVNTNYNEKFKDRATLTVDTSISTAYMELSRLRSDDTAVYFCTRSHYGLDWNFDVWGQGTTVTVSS
T1 sequence (VL, as listed by the source, chain 2 of 2): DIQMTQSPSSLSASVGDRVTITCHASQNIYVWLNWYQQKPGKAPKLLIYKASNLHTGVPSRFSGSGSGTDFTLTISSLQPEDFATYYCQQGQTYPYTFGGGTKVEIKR
Method: (§1) Clonal phage were harvested as crude supernatants and screened via standard ELISAs. […] Prior to the addition of clonal phage, wells were incubated with blocking buffer and CD28 antigen or blocking buffer alone. Without washing or aspirating, clonal phage supernatants were then added to the wells and incubated for a short time. Wells were then washed followed by detection of bound phage using a horse radish conjugated anti-M13 antibody.

Binder	Anti-CD28 Fab signal in the presence of CD28
YCDGHLAEYMPKCL [Phage-320]	0.07
YCDGHLAEYMVKCL [Phage-375]	0.08
YCDGHLPEYMGKCL [Phage-316]	0.11
YCEGHSPEYMRKCL [Phage-385]	0.08
YCEGHSYEYMWKCL [Phage-328]	0.08
YCEGHKPEYMQKCL [Phage-447]	0.06
YCEGHSPEYMWKCL [Phage-321]	0.09
YCEGHLPAYMQKCL [Phage-377]	0.07
YCDGHLPEYMRKCL [Phage-330]	0.08
YCEGHLPEYMRKCL [Phage-349]	0.06
YCEGHLPEYMMKCL [Phage-329]	0.27
YCEGHRPEYMAKCL [Phage-348]	0.07
YCEGHMSEYMAKCL [Phage-325]	0.11
YCEGHRSEYMAKCL [Phage-336]	0.06
YCEGHIPEYMAKCL [Phage-318]	0.06
YCDGHSPEYMPKCL [Phage-319]	0.08
YCEGHLQEYMEKCL [Phage-317]	0.1
YCVGHLQEYMEKCL [Phage-389]	0.06

biological target: T1, anti-CD28 Fab (SEQ ID NOs: 202, 203); test: phage binding ELISA; biotinylated Fab on neutravidin plate;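 further: clonal phage supernatants added to Fab wells pretreated with CD28 antigen or with blocking buffer only, bound phage read out via HRP-linked anti-M13 antibody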
Method: as §1

Binder	Anti-CD28 Fab (SEQ ID NOs: 202, 203) signal
YCDGHLAEYMPKCL [Phage-320]	1.89
YCDGHLAEYMVKCL [Phage-375]	1.79
YCDGHLPEYMGKCL [Phage-316]	1.89
YCEGHSPEYMRKCL [Phage-385]	1.77
YCEGHSYEYMWKCL [Phage-328]	1.88
YCEGHKPEYMQKCL [Phage-447]	1.69
YCEGHSPEYMWKCL [Phage-321]	1.89
YCEGHLPAYMQKCL [Phage-377]	1.78
YCDGHLPEYMRKCL [Phage-330]	1.88
YCEGHLPEYMRKCL [Phage-349]	1.83
YCEGHLPEYMMKCL [Phage-329]	1.88
YCEGHRPEYMAKCL [Phage-348]	1.83
YCEGHMSEYMAKCL [Phage-325]	1.88
YCEGHRSEYMAKCL [Phage-336]	1.86
YCEGHIPEYMAKCL [Phage-318]	1.89
YCDGHSPEYMPKCL [Phage-319]	1.89
YCEGHLQEYMEKCL [Phage-317]	1.89
YCVGHLQEYMEKCL [Phage-389]	1.76

From patent publication US20260274955A1 (JANUX THERAPEUTICS, published 2026)
